The subject of series [1] is HeLa Kyoto. The series is described as follows: solubility change mitosis vs G1/S (difference of NP-40 vs SDS log2 ratios) (log2 ratio difference); higher = more soluble in mitosis.
The test system of series [2] is HeLa Kyoto. Briefly: solubility in G1/S (NP-40 vs SDS abundance) (log2 ratio); higher = more soluble. Particulars: cell cycle stage: G1/S.
Series [3] deals with HeLa Kyoto. Briefly: thermal stability score vs G1/S (z-score of summed log2 fold changes over temperatures); higher = more thermally stable than in G1/S.
Setting [4] is: cell cycle stage: early G1 (4.5 h after nocodazole release).
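Wherever solubility change mitosis vs G1/S (difference of NP-40 vs SDS log2 ratios) is given: synchronized HeLa Kyoto cells (double thymidine block for G1/S, nocodazole release for mitosis), protein amounts in NP-40 versus SDS lysates quantified by mass spectrometry, three biological replicates.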
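Wherever solubility in G1/S (NP-40 vs SDS abundance) is given: HeLa Kyoto cells arrested at G1/S by double thymidine block, proteins quantified by TMT10plex mass spectrometry in mild NP-40 versus SDS extracts, three biological replicates.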
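Wherever thermal stability score vs G1/S (z-score of summed log2 fold changes over temperatures) is given: synchronized HeLa Kyoto cells, proteins quantified by TMT10plex mass spectrometry, three biological replicates, mitosis taken 0.5 h after nocodazole release, G1/S directly after double thymidine block.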

Consider “MDSQELKTLINYYCQERYFHHVLLVASEGIKRYGSDPVFRFYHAYGTLMEGKTQEALREFEAIKNKQDVSLCSLLALIYAHKMSPNPDREAILESDARVKEQRKGAGEKALYHAGLFLWHIGRHDKAREYIDRMIKISDGSKQGHVLKAWLDITRGKEPYTKKALKYFEEGLQDGNDTFALLGKAQCLEMRQNYSGALETVNQIIVNFPSFLPAFVKKMKLQLALQDWDQTVETAQRLLLQDSQNVEALRMQALYYVCREGDIEKASTKLENLGNTLDAMEPQNAQLFYNITLAFSRTCGRSQLILQKIQTLLERAFSLNPQQSEFATELGYQMILQGRVKEALKWYKTAMTLDETSVSALVGFIQCQLIEGQLQDADQQLEFLNEIQQSIGKSAELIYLHAVLAMKKNKRQEEVINLLNDVLDTHFSQLEGLPLGIQYFEKLNPDFLLEIVMEYLSFCPMQPASPGQPLCPLLRRCISVLETVVRTVPGLLQTVFLIAKVKYLSGDIEAAFNNLQHCLEHNPSYADAHLLLAQVYLSQEKVKLCSQSLELCLSYDFKVRDYPLYHLIKAQSQKKMGEIADAIKTLHMAMSLPGMKRIGASTKSKDRKTEVDTSHRLSIFLELIDVHRLNGEQHEATKVLQDAIHEFSGTSEEVRVTIANADLALAQGDIERALSILQNVTAEQPYFIEAREKMADIYLKHRKDKMLYITCFREIAERMANPRSFLLLGDAYMNILEPEEAIVAYEQALNQNPKDGTLASKMGKALIKTHNYSMAITYYEAALKTGQKNYLCYDLAELLLKLKWYDKAEKVLQHALAHEPVNELSALMEDGRCQVLLAKVYSKMEKLGDAITALQQARELQARVLKRVQMEQPDAVPAQKHLAAEICAEIAKHSVAQRDYEKAIKFYREALVHCETDNKIMLELARLYLAQDDPDSCLRQCALLLQSDQDNEAATMMMADLMFRKQDYEQAVFHLQQLLERKPDNYMTLSRLIDLLRRCGKLEDVPRFFSMAEKRNSRAKLEPGFQYCKGLYLWYTGEPNDALRHFNKARKDRDWGQNALYNMIEICLNPDNETVGGEVFENLDGDLGNSTEKQESVQLAVRTAEKLLKELKPQTVQGHVQLRIMENYCLMATKQKSNVEQALNTFTEIAASEKEHIPALLGMATAYMILKQTPRARNQLKRIAKMNWNAIDAEEFEKSWLLLADIYIQSAKYDMAEDLLKRCLRHNRSCCKAYEYMGYIMEKEQAYTDAALNYEMAWKYSNRTNPAVGYKLAFNYLKAKRYVDSIDICHQVLEAHPTYPKIRKDILDKARASLRP [TTC21B]”, for which the “solubility change mitosis (log2)” value in the series on HeLa Kyoto [1] is -0.211. In addition, in the series with HeLa Kyoto [2], the “solubility in G1/S (log2)” value was -0.116. For the same substance, the thermal stability score turned out to be 1.06 in the series on HeLa Kyoto [3] (setting [4]) and 0.205 with HeLa Kyoto [3] (cell cycle stage: mitosis).
For “MQTSEREGSGPELSPSVMPEAPLESPPFPTKSPAFDLFNLVLSYKRLEIYLEPLKDAGDGVRYLLRWQMPLCSLLTCLGLNVLFLTLNEGAWYSVGALMISVPALLGYLQEVCRARLPDSELMRRKYHSVRQEDLQRGRLSRPEAVAEVKSFLIQLEAFLSRLCCTCEAAYRVLHWENPVVSSQFYGALLGTVCMLYLLPLCWVLTLLNSTLFLGNVEFFRVVSEYRASLQQRMNPKQEEHAFESPPPPDVGGKDGLMDSTPALTPTEDLTPGSVEEAEEAEPDEEFKDAIEETHLVVLEDDEGAPCPAEDELALQDNGFLSKNEVLRSKVSRLTERLRKRYPTNNFGNCTGCSATFSVLKKRRSCSNCGNSFCSRCCSFKVPKSSMGATAPEAQRETVFVCASCNQTLSK [ZFYVE27]”, the “solubility change mitosis (log2)” value with HeLa Kyoto [1] is -0.198. Further, the “solubility in G1/S (log2)” value with HeLa Kyoto [2] was -0.196. In addition, the thermal stability score is 0.202 in the series on HeLa Kyoto [3] (setting [4]) and -1.24 in the series on HeLa Kyoto [3] (cell cycle stage: mitosis).
On the same counts, the results for “MSKISEAVKRARAAFSSGRTRPLQFRIQQLEALQRLIQEQEQELVGALAADLHKNEWNAYYEEVVYVLEEIEYMIQKLPEWAADEPVEKTPQTQQDELYIHSEPLGVVLVIGTWNYPFNLTIQPMVGAIAAGNSVVLKPSELSENMASLLATIIPQYLDKDLYPVINGGVPETTELLKERFDHILYTGSTGVGKIIMTAAAKHLTPVTLELGGKSPCYVDKNCDLDVACRRIAWGKFMNSGQTCVAPDYILCDPSIQNQIVEKLKKSLKEFYGEDAKKSRDYGRIISARHFQRVMGLIEGQKVAYGGTGDAATRYIAPTILTDVDPQSPVMQEEIFGPVLPIVCVRSLEEAIQFINQREKPLALYMFSSNDKVIKKMIAETSSGGVAANDVIVHITLHSLPFGGVGNSGMGSYHGKKSFETFSHRRSCLVRPLMNDEGLKVRYPPSPAKMTQH [ALDH3A1]” are -0.153, 0.316, 0.258 and -0.475.
On the same counts, the results for “MAARAVLDEFTAPAEKAELLEQSRGRIEGLFGVSLAVLGALGAEEPLPARIWLQLCGAQEAVHSAKEYIKGICEPELEERECYPKDMHCIFVGAESLFLKSLIQDTCADLCILDIGLLGIRGSAEAVVMARSHIQQFVKLFENKENLPSSQKESEVKREFKQFVEAHADNYTMDLLILPTSLKKELLTLTQGEENLFETGDDEVIEMRDSQQTEFTQNAATGLNISRDETVLQEEARNKAGTPVSELTKQMDTVLSSSPDVLFDPINGLTPDEEALSNERICQKRRFSDSEERHTKKQFSLENVQEGEILHDAKTLAGNVIADLSDSSADSENLSPDIKETTEEMEYNILVNFFKTMGYSQEIVEKVIKVYGPSTEPLLLLEEIEKENKRFQEDREFSAGTVYPETNKTKNKGVYSSTNELTTDSTPKKTQAHTQQNMVEKFSQLPFKVEAKPCTSNCRINTFRTVPIEQKHEVWGSNQNYICNTDPETDGLSPSVASPSPKEVNFVSRGASSHQPRVPLFPENGLHQQPEPLLPNNMKSACEKRLGCCSSPHSKPNCSTLSPPMPLPQLLPSVTDARSAGPSDHIDSSVTGVQRFRDTLKIPYKLELKNEPGRTDLKHIVIDGSNVAITHGLKKFFSCRGIAIAVEYFWKLGNRNITVFVPQWRTRRDPNVTEQHFLTQLQELGILSLTPARMVFGERIASHDDRFLLHLADKTGGIIVTNDNFREFVNESVSWREIITKRLLQYTFVGDIFMVPDDPLGRSGPRLEEFLQKEVCLRDMQPLLSALPNVGMFDPSFRVPGTQAASTSHQPPTRIQGAPSSHWLPQQPHFPLLPALPSLQQNLPMPAQRSSAETNELREALLKIFPDSEQRLKIDQILVAHPYMKDLNALSAMVLD [N4BP1]” are -0.0226, 0.0767, 1.68 and 2.82.
For “MKKSIGILSPGVALGMAGSAMSSKFFLVALAIFFSFAQVVIEANSWWSLGMNNPVQMSEVYIIGAQPLCSQLAGLSQGQKKLCHLYQDHMQYIGEGAKTGIKECQYQFRHRRWNCSTVDNTSVFGRVMQIGSRETAFTYAVSAAGVVNAMSRACREGELSTCGCSRAARPKDLPRDWLWGGCGDNIDYGYRFAKEFVDARERERIHAKGSYESARILMNLHNNEAGRRTVYNLADVACKCHGVSGSCSLKTCWLQLADFRKVGDALKEKYDSAAAMRLNSRGKLVQVNSRFNSPTTQDLVYIDPSPDYCVRNESTGSLGTQGRLCNKTSEGMDGCELMCCGRGYDQFKTVQTERCHCKFHWCCYVKCKKCTEIVDQFVCK [WNT5A]” the same measures were -0.0777, -0.0436, -0.194 and 0.339.
For the substance “MLPFLLATLGTTALNNSNPKDYCYSARIRSTVLQGLPFGGVPTVLALDFMCFLALLFLFSILRKVAWDYGRLALVTDADRLRRQERDRVEQEYVASAMHGDSHDRYERLTSVSSSVDFDQRDNGFCSWLTAIFRIKDDEIRDKCGGDAVHYLSFQRHIIGLLVVVGVLSVGIVLPVNFSGDLLENNAYSFGRTTIANLKSGNNLLWLHTSFAFLYLLLTVYSMRRHTSKMRYKEDDLVKRTLFINGISKYAESEKIKKHFEEAYPNCTVLEARPCYNVARLMFLDAERKKAERGKLYFTNLQSKENVPTMINPKPCGHLCCCVVRGCEQVEAIEYYTKLEQKLKEDYKREKEKVNEKPLGMAFVTFHNETITAIILKDFNVCKCQGCTCRGEPRPSSCSESLHISNWTVSYAPDPQNIYWEHLSIRGFIWWLRCLVINVVLFILLFFLTTPAIIITTMDKFNVTKPVEYLNNPIITQFFPTLLLWCFSALLPTIVYYSAFFEAHWTRSGENRTTMHKCYTFLIFMVLLLPSLGLSSLDLFFRWLFDKKFLAEAAIRFECVFLPDNGAFFVNYVIASAFIGNAMDLLRIPGLLMYMIRLCLARSAAERRNVKRHQAYEFQFGAAYAWMMCVFTVVMTYSITCPIIVPFGLMYMLLKHLVDRYNLYYAYLPAKLDKKIHSGAVNQVVAAPILCLFWLLFFSTMRTGFLAPTSMFTFVVLVITIVICLCHVCFGHFKYLSAHNYKIEHTETDTVDPRSNGRPPTAAAVPKSAKYIAQVLQDSEVDGDGDGAPGSSGDEPPSSSSQDEELLMPPDALTDTDFQSCEDSLIENEIHQ [TMEM63B]”, in the series on HeLa Kyoto [1], the “solubility change mitosis (log2)” value was -0.109. Further, the “solubility in G1/S (log2)” value in the series with HeLa Kyoto [2] is -0.0696. Also, the values for the thermal stability score in the series on HeLa Kyoto [3] (setting [4]) and in the series on HeLa Kyoto [3] (cell cycle stage: mitosis) were -2.78 and -2.41, respectively.
On the same counts, the results for CELSR1 are -0.0398, -0.413, -1.99 and -1.59.
“MASADKNGGSVSSVSSSRLQSRKPPNLSITIPPPEKETQAPGEQDSMLPEGFQNRRLKKSQPRTWAAHTTACPPSFLPKRKNPAYLKSVSLQEPRSRWQESSEKRPGFRRQASLSQSIRKGAAQWFGVSGDWEGQRQQWQRRSLHHCSMRYGRLKASCQRDLELPSQEAPSFQGTESPKPCKMPKIVDPLARGRAFRHPEEMDRPHAPHPPLTPGVLSLTSFTSVRSGYSHLPRRKRMSVAHMSLQAAAALLKGRSVLDATGQRCRVVKRSFAFPSFLEEDVVDGADTFDSSFFSKEEMSSMPDDVFESPPLSASYFRGIPHSASPVSPDGVQIPLKEYGRAPVPGPRRGKRIASKVKHFAFDRKKRHYGLGVVGNWLNRSYRRSISSTVQRQLESFDSHRPYFTYWLTFVHVIITLLVICTYGIAPVGFAQHVTTQLVLRNKGVYESVKYIQQENFWVGPSSIDLIHLGAKFSPCIRKDGQIEQLVLRERDLERDSGCCVQNDHSGCIQTQRKDCSETLATFVKWQDDTGPPMDKSDLGQKRTSGAVCHQDPRTCEEPASSGAHIWPDDITKWPICTEQARSNHTGFLHMDCEIKGRPCCIGTKGSCEITTREYCEFMHGYFHEEATLCSQVHCLDKVCGLLPFLNPEVPDQFYRLWLSLFLHAGVVHCLVSVVFQMTILRDLEKLAGWHRIAIIFILSGITGNLASAIFLPYRAEVGPAGSQFGLLACLFVELFQSWPLLERPWKAFLNLSAIVLFLFICGLLPWIDNIAHIFGFLSGLLLAFAFLPYITFGTSDKYRKRALILVSLLAFAGLFAALVLWLYIYPINWPWIEHLTCFPFTSRFCEKYELDQVLH [RHBDF2]”: the “solubility change mitosis (log2)” value with HeLa Kyoto [1] turned out to be 0.063. Further, in the series with HeLa Kyoto [2], the “solubility in G1/S (log2)” value was -0.177. Besides, the thermal stability score in the series with HeLa Kyoto [3] (setting [4]) was -2.24; with HeLa Kyoto [3] (cell cycle stage: mitosis), -2.01.
For “MASAAVESFVTKQLDLLELERDAEVEERRSWQENISLKELQSRGVCLLKLQVSSQRTGLYGRLLVTFEPRRYGSAAALPSNSFTSGDIVGLYDAANEGSQLATGILTRVTQKSVTVAFDESHDFQLSLDRENSYRLLKLANDVTYRRLKKALIALKKYHSGPASSLIEVLFGRSAPSPASEIHPLTFFNTCLDTSQKEAVLFALSQKELAIIHGPPGTGKTTTVVEIILQAVKQGLKVLCCAPSNIAVDNLVERLALCKQRILRLGHPARLLESIQQHSLDAVLARSDSAQIVADIRKDIDQVFVKNKKTQDKREKSNFRNEIKLLRKELKEREEAAMLESLTSANVVLATNTGASADGPLKLLPESYFDVVVIDECAQALEASCWIPLLKARKCILAGDHKQLPPTTVSHKAALAGLSLSLMERLAEEYGARVVRTLTVQYRMHQAIMRWASDTMYLGQLTAHSSVARHLLRDLPGVAATEETGVPLLLVDTAGCGLFELEEEDEQSKGNPGEVRLVSLHIQALVDAGVPARDIAVVSPYNLQVDLLRQSLVHRHPELEIKSVDGFQGREKEAVILSFVRSNRKGEVGFLAEDRRINVAVTRARRHVAVICDSRTVNNHAFLKTLVEYFTQHGEVRTAFEYLDDIVPENYSHENSQGSSHAATKPQGPATSTRTGSQRQEGGQEAAAPARQGRKKPAGKSLASEAPSQPSLNGGSPEGVESQDGVDHFRAMIVEFMASKKMQLEFPPSLNSHDRLRVHQIAEEHGLRHDSSGEGKRRFITVSKRAPRPRAALGPPAGTGGPAPLQPVPPTPAQTEQPPREQRGPDQPDLRTLHLERLQRVRSAQGQPASKEQQASGQQKLPEKKKKKAKGHPATDLPTEEDFEALVSAAVKADNTCGFAKCTAGVTTLGQFCQLCSRRYCLSHHLPEIHGCGERARAHARQRISREGVLYAGSGTKNGSLDPAKRAQLQRRLDKKLSELSNQRTSRRKERGT [IGHMBP2]” the same measures were 0.296, -0.73, 0.859 and 0.156.

(Values after the supplement of paper PMC5998384.)
